Experimental data published in patent US20150266922A1 (GEORG AUGUST UNIVERSITAT GOTTINGEN STIFTUNG OFFENTLICHEN …, published 2015).

target: T1, Dipeptidyl peptidase 9 (DPP9), recombinant wild-type (human, UniProt Q86TI2 1-863); experiment: cell-based or functional assay
T1 sequence (Q86TI2 other isoform, or with tags, fused parts or gaps limits assumed, form in doubt): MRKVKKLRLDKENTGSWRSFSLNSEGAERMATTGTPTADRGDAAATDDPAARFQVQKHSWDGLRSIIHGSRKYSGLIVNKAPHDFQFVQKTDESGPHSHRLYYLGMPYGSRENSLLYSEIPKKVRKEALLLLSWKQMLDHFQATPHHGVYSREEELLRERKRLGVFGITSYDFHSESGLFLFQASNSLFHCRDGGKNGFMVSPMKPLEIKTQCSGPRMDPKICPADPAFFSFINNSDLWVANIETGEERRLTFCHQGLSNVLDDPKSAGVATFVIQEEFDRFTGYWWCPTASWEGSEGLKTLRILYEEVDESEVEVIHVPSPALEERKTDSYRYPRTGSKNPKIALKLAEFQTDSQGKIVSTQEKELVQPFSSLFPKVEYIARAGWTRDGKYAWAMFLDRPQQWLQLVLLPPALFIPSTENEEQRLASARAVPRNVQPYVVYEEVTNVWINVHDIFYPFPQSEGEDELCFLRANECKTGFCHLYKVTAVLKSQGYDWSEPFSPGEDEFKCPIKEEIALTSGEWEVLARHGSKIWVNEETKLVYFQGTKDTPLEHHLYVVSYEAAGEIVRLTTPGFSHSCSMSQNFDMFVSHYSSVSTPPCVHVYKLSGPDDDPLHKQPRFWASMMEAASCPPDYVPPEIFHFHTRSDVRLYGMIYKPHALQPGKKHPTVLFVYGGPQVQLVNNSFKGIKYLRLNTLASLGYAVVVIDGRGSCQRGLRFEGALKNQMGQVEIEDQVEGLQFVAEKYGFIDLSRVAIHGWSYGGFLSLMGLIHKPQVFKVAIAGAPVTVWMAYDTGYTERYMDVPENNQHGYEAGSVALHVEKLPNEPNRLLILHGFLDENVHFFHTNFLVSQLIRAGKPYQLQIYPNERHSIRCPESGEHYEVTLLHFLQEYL

Row | Binder | % DPP9 activity (Mean), 14 µM peptide [%]
1 | SLRFLFDGQRIADNH [SLRFLFDGQRIADNH (SEQ ID NO: 17)] | 74.9
2 | RFLFEGQRIADNH [… (SEQ ID NO: 23)] | 79.8
3 | SLRFLFEAQRIADNH [SLRFLFEAQRIADNH (SEQ ID NO: 22)] | 19.5
4 | FLFEGQRI [… (SEQ ID NO: 33)] | 55.9
5 | SLRFLWEGQRIADNH [SLRFLWEGQRIADNH (SEQ ID NO: 18)] | 26.9
6 | SLRFLAEGQRIADNH [SLRFLAEGQRIADNH (SEQ ID NO: 21)] | 72.9
7 | FLFEGQRIA [… (SEQ ID NO: 32)] | 38.4
8 | SLRFLFEGQR [… (SEQ ID NO: 28)] | 18.4
9 | LFEGQRIADNH [… (SEQ ID NO: 24)] | 42.7
10 | SLRFLVEGQRIADNH [SLRFLVEGQRIADNH (SEQ ID NO: 19)] | 28.6
11 | SLRFLFEGQRI [… (SEQ ID NO: 27)] | 29.1
12 | FLIEGQRI [FLIEGQRI (SEQ ID NO: 36)] | 49
13 | RFLFEGQRIAD [… (SEQ ID NO: 31)] | 66.4
14 | SLRFLFEGQRIADNR [SLRFLFEGQRIADNR (SEQ ID NO: 16)] | 56.4

target: T1, Dipeptidyl peptidase 9 (DPP9), …; experiment: cell-based or functional assay; remark: another data set of the same source

Row | Binder | % DPP9 activity (Mean), 10 µM peptide [%]
15 | SLRFLYEGAAA [SLRFLYEGAAA (SEQ ID NO: 45)] | 23.9
16 | TLRFLFEG [TLRFLFEG (SEQ ID NO: 41)] | 29.2
17 | RRRRSLRFLYAG [RRRRSLRFLYAG (SEQ ID NO: 47)] | 91.5
18 | AAASLRFLYEG [AAASLRFLYEG (SEQ ID NO: 44)] | 91.2
19 | RRRRSLRFLFEG [RRRRSLRFLFEG (SEQ ID NO: 46)] | 92.2
20 | SLRFLYAG [SLRFLYAG (SEQ ID NO: 40)] | 16.3
21 | SLRFLFAG [SLRFLFAG (SEQ ID NO: 39)] | 15.3

target: T2, SUMO1 (UniProt P63165 1-97, limits assumed); experiment: competition ELISA: SUMO1 pre-incubated with the peptide, then added to immobilized DPP9
T2 construct: Immobilized on CnBr Sepharose beads or ELISA wells, or free in solution; also called S1
T2 sequence (P63165 1-97 limits assumed): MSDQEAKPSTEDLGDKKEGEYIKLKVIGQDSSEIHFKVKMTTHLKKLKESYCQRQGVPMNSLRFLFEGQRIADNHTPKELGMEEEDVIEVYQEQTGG
Method: ELISA: A 96 well plate (Immuno 96 MicroWell™ Solid Plates, Nunc) was coated with 600 ng purified recombinant proteins per well in 100 μl TB, overnight at 4° C. Next, wells were blocked with ELISA buffer (TB supplemented with 3% BSA) for 1 h at room temperature. After blocking, recombinant interacting proteins were added to the wells. Following 2 hours of incubation at 25° C., wells were washed four times. […] After incubation with secondary antibodies, wells were washed with ELISA buffer and ddH20. Reactions were developed with TMB-substrate reagent set from BD (OptEIA substrate). Absorbance was measured at 420 nm on an Appliskan microplate fluorimeter (Thermo Scientific) and the Skanit software. Experiments were performed at least three times, in triplicates.

Row | Binder | binding result
22 | VEVIHVPSPALEERKTDSYR (also called peptide corresponding to the extended arm of DPP9) [DPP9-arm peptide (285-VEVIHVPSPALEERKTDSYR-304)] | binds
